These results are taken from patent publication EP4725970A1 (Fortvita Biologics Inc., dated 2026).

In one assay the target is T1, human CD3E&G-His/Free (human, UniProt P07766 23-126; P09693 23-116).
T1 construct: Bought recombinant heterodimer; 'His/Free' as printed (one chain His-tagged); also called human CD3 E&G heterodimer
Nature of the assay: BLI (Octet), 1:1 fit.

The next assay deals with T2, cyno CD3E&G-His/Free (cynomolgus monkey, UniProt Q95LI5 22-117; Q95LI7 23-113).
T2 construct: Bought recombinant heterodimer; also called monkey CD3 E&G
T2 sequence (looked up) 1: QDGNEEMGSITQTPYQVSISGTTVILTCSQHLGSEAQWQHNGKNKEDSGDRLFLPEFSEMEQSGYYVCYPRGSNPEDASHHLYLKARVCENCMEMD
T2 sequence (looked up) 2: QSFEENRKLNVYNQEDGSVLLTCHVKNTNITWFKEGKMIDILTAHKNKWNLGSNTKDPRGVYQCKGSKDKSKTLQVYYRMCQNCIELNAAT
Nature of the assay: BLI (Octet), 1:1 fit.

The target in a further assay is T3, Cyno BCMA-His (cynomolgus monkey, UniProt A0A2K5UD97 1-53).
T3 construct: also called Cyno BCMA (ACRO BCA-C52H7); monkey BCMA
Nature of the assay: BLI (Octet), 1:1 fit.

Assay [1] addresses T4, human BCMA (full-length, on cells) (human, UniProt Q02223 1-184).
T4 sequence: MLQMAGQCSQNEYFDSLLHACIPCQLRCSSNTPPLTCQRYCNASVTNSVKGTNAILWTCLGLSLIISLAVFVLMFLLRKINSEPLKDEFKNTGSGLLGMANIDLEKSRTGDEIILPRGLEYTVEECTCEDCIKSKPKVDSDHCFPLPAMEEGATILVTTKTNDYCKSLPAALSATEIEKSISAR
Nature of the assay: cell-based or functional assay.

Assay [2] addresses T4, human BCMA (full-length, on cells). Put plainly: cell-based or functional assay. This is another data set of the same source.
Assay [3] concerns the target T5, human GPRC5D (full-length, on cells) (human, UniProt Q9NZD1 1-345). Put plainly: cell-based or functional assay.
The target in assay [4] is T5, human GPRC5D (full-length, on cells). Nature of the assay: cell-based or functional assay. This is another data set of the same source.
The target in assay [5] is T4, human BCMA (full-length, on cells). Nature of the assay: flow cytometry, GS-CHO-hBCMA cells.
The target of assay [6] is T5, human GPRC5D (full-length, on cells). Nature of the assay: flow cytometry, GS-CHO-hGPRC5D cells.
For assay [7] the target is unchanged. Nature of the assay: cell-based or functional assay. This is another data set of the same source.
In assay [8] the target is T6, human CD3 (on Jurkat cells and human T cells) (human, UniProt P07766 23-207).
T6 construct: whole, on cells; the other chains of the complex on the cells are not described; also called CD3E
Nature of the assay: flow cytometry, Jurkat cells.

Assay [9] addresses T6, human CD3 (on Jurkat cells and human T …). Put plainly: flow cytometry, human CD4 T cells.
Assay [10] shares this target. Put plainly: flow cytometry, human CD8 T cells.
Assay [11] addresses T5, human GPRC5D (full-length, on cells). Nature of the assay: flow cytometry, GS-CHO-hGPRC5D cells. The source holds these as a separate data set.

Where two headings read alike, the source gives them in different places.

T3 sequence (A0A2K5UD97 entry or part of it): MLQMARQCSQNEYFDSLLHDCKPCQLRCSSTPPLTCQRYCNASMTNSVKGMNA
T1 sequence (P07766 23-126, chain 1 of 2): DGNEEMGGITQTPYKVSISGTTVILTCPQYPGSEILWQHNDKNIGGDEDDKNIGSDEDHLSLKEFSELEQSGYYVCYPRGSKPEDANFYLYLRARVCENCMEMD
T1 sequence (P09693 23-116, chain 2 of 2): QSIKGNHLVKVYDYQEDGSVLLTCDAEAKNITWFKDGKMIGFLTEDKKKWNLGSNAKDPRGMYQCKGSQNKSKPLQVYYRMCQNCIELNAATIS
T5 sequence (Q9NZD1 whole entry): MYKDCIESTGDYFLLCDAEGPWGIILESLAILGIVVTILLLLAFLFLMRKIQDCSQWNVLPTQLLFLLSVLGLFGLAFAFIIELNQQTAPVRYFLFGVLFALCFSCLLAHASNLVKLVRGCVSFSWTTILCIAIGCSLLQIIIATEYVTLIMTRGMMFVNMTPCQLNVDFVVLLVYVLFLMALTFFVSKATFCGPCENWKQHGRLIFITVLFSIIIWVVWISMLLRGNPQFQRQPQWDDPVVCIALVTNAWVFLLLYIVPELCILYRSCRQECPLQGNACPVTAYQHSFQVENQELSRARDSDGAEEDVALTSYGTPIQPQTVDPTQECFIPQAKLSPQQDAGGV
T6 sequence (P07766 23-207): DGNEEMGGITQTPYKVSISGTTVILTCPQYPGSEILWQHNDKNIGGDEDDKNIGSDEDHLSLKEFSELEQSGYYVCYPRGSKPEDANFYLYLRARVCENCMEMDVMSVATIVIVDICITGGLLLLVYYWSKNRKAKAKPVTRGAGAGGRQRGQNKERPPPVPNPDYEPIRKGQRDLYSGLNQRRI

B1: B3 (87) (hz5E12_sp34.87_497_triFab) (trispecific antibody, human IgG1, kappa, lambda, L234A L235A)
heavy 1: not shown
light 1: DIVMTQSPDSLAVSLGERATINCRASESVDSYGITFMNWYQQKPGQPPKLLIYAASNQGSGVPDRFSGSGSGTDFTLTISSLQAEDVAVYYCQQSKEVPWTFGQGTKLEIKRTVAAPSVFIFPPSDEQLKSGTASVVCLLNNFYPREAKVQWKVDNALQSGNSQESVTEQDSKDSTYSLSSTLTLSKADYEKHKVYACEVTHQGLSSPVTKSFNRGEC
heavy 2: not shown
light 2: DIQMTQSPSSLSASVGDRVTITCRASQSISRYLNWYQDKPGKAPKLLIYAASSLQSGVPSRFSGSGSGTDFTLTISSLQPEDFATYYCQQKYFDITFGGGTKVEIKRTVAAPSVFIFPPSDECLKSGTASVVCLLNNFYPREAKVQWKVDNALQSGNSQESVTEQDSKDSTYSLSSTLTLSKADYEKHKVYACEVTHQGLSSPVTKSFNRGES
light 3: QAVVTQEPSLTVSPGGTVTLTCRSSTGAVTTSNYANWVQKKPGQAPRGLIGGTNKRAPGVPARFSGSLLGDKAALTLLGAQPEDEAEYYCALWYSNLWVFGQGTKLTVLGQPKAAPSVTLFPPSSEELQANKATLVCLISDFYPGAVTVAWKADSSPVKAGVETTTPSKQSNNKYAASSYLSLTPEQWKSHRSYSCQVTHEGSTVEKTVAPTECS
notes: also called Exemplary antibody No. 2
As for B1, the Kd came to 69.4 nM with human CD3E&G-His/Free, 61.1 nM with cyno CD3E&G-His/Free and 1.58 nM in the assay with Cyno BCMA-His. Moreover, the koff in the assay with human CD3E&G-His/Free is 0.0151 s⁻¹; with cyno CD3E&G-His/Free, 0.0131 s⁻¹; with Cyno BCMA-His it was 0.00122 s⁻¹. Besides, the kon with human CD3E&G-His/Free came to 218000 M⁻¹ s⁻¹; in the assay with cyno CD3E&G-His/Free it was 214000 M⁻¹ s⁻¹; with Cyno BCMA-His, 773000 M⁻¹ s⁻¹. The “EC50 of PBMC killing of H929 ko GPRC5D cells (LDH)” value in assay [1] came to 176 pM. Besides, the “EC50 of PBMC killing of H929 ko GPRC5D cells, donor1” value in assay [2] worked out at 346 pM. Moreover, the “EC50 of PBMC killing of H929 ko BCMA cells (LDH)” value in assay [3] worked out at 25 pM. Further, the “EC50 of PBMC killing of H929 ko BCMA cells, donor1” value in assay [4] was determined as 66.2 pM. Further, the values for the concentration giving a half-maximal response (EC50) in [5] and in assay [6] were 37.7 nM and 132 nM, respectively.

B2: Roche-GPRC5D/CD3 (bispecific antibody)
light 1: DIVLTQSPALAVSPGQRATISCRASQSVSISGINLMNWYQQKPGQQPKLLIYHASILASGIPTRFSGSGSGTDFTLTIDPVQADDIATYYCQQTRESPLTFGSGTNLEIKRTVAAPSVFIFPPSDRKLKSGTASVVCLLNNFYPREAKVQWKVDNALQSGNSQESVTEQDSKDSTYSLSSTLTLSKADYEKHKVYACEVTHQGLSSPVTKSFNRGEC
light 2: EVQLLESGGGLVQPGGSLRLSCAASGFTFSTYAMNWVRQAPGKGLEWVSRIRSKYNNYATYYADSVKGRFTISRDDSKNTLYLQMNSLRAEDTAVYYCVRHGNFGNSYVSWFAYWGQGTLVTVSSASVAAPSVFIFPPSDEQLKSGTASVVCLLNNFYPREAKVQWKVDNALQSGNSQESVTEQDSKDSTYSLSSTLTLSKADYEKHKVYACEVTHQGLSSPVTKSFNRGEC
heavy 1: ELQLEQSGGGLVQPGGSLTLSCAASGFTFSKYAMAWVRQAPTKGLEWVASISTGGVNTYYRDSVKARFTISRDNAKNTQYLQMDSLRSEDTATYYCATHTGDYFDYWGQGVMVTVSSASTKGPSVFPLAPSSKSTSGGTAALGCLVEDYFPEPVTVSWNSGALTSGVHTFPAVLQSSGLYSLSSVVTVPSSSLGTQTYICNVNHKPSNTKVDEKVEPKSCDKTHTCPPCPAPEAAGGPSVFLFPPKPKDTLMISRTPEVTCVVVDVSHEDPEVKFNWYVDGVEVHNAKTKPREEQYNSTYRVVSVLTVLHQDWLNGKEYKCKVSNKALGAPIEKTISKAKGQPREPQVCTLPPSRDELTKNQVSLSCAVKGFYPSDIAVEWESNGQPENNYKTTPPVLDSDGSFFLVSKLTVDKSRWQQGNVFSCSVMHEALHNHYTQKSLSLSPGK
heavy 2: not shown
notes: GPRC5D/CD3 bispecific derived from WO 2019/154890 A1
As to B2, the “EC50 of PBMC killing of H929 ko BCMA cells (LDH)” value in [7] was 4.19 pM. Also, in [4], the “EC50 of PBMC killing of H929 ko BCMA cells, donor1” value was 4.86 pM. Besides, the EC50 in assay [8] came to 30.4 nM; in [9] it was 66.6 nM; in assay [10] it was 65.8 nM; in assay [11] it was 16 nM; in assay [6], 9.78 nM.
